Literature values, collected in paper PMC3125604.
pKd: −log10 of the molar value.

Target: Prolactin receptor (site 2) (Homo sapiens) (UniProt P16471)
Assay: surface plasmon resonance

Sequence of UniProt P16471 (P16471 25-234): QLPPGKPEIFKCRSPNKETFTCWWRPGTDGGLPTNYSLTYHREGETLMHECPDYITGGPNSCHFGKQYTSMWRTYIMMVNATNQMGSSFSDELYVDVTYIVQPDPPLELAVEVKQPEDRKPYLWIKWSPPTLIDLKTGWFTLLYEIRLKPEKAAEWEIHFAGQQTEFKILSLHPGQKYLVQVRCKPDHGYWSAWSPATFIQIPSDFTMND

Prolactin (hPRL) (from UniProt P01236)
pKd: 4.48
